Reference: patent US10429300B2, “Surface plasmon resonance approach to monitor protein-ligand interactions” (The Johns Hopkins University, priority 2015, dated 2019)
“Also recorded” adds a separate entry of the source.

B1: CssIV: β-scorpion toxin from Centruroides suffusus suffusus (protein)
chain: KEGYLVNSYTGCKFECFKLGDNDYCLRECRQQYGKGSGGYCYAFGCWCTHLYEQAVVWPLPNKTCN
B2: AaHII: Nav channel-selective α-scorpion toxin from Androctonus australis hector; model toxin (protein)
chain: VKDGYIVDDVNCTYFCGRNAYCNEECTKLKGESGYCQWASPYGNACYCYKLPDHVRTKGPGRCH

Legend:
[1] = system: rNav1.2a/Kv2.1 VSD IV paddle chimera; test: Two-electrode voltage-clamp, rNav1.2a/Kv2.1 VSD IV paddle chimera in Xenopus oocytes; assay type: cell-based, rat
rNav1.2a/Kv2.1 VSD IV paddle chimera, sequence (P04775 1605-1636 limits assumed, stated change not applied): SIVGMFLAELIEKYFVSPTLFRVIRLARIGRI
From the text: The DNA sequence of rat (r)Nav1.2a (provided by A. Goldin, University of California, Irvine, Irvine, Calif.), rKv2.1 (provided by K. J. Swartz, National Institutes of Health), and the rNav1.2a/Kv2.1 VSD II or IV chimera was confirmed by automated DNA sequencing, and cRNA was synthesized using T7 polymerase (mMessage mMachine™ kit; Life Technologies) after linearizing the DNA with appropriate restriction enzymes. Channels were expressed in Xenopus oocytes (obtained from Xenopus 1) and studied after a 1-d incubation after cRNA injection (incubated at 17° C. in 96 mM NaCl, 2 mM KCl, 5 mM HEPES, 1 mM MgCl2, 1.8 mM CaCl2, and 50 μg/ml gentamycin, pH 7.6 with NaOH) using two-electrode voltage-clamp recording techniques (OC-725C; Warner Instruments) with a 150-μl recording chamber. Data were filtered at 4 kHz and digitized at 20 kHz using pClamp™ 10 software (Molecular Devices). Microelectrode resistances were 0.5-1.5 MΩ when filled with 3 M KCl. For Kv chimera channel experiments, the external recording solution contained (mM): 50 KCl, 50 NaCl, 5 HEPES, 1 MgCl2, and 0.3 CaCl2, pH 7.6 with NaOH. For rNav1.2a experiments, the external recording solution contained (mM): 100 NaCl, 5 HEPES, 1 MgCl2, and 1.8 CaCl2, pH 7.6 with NaOH. All experiments were performed at ˜22° C. Leak and background conductances, identified by blocking the channel with agitoxin-2 (provided by K. J. Swartz), have been subtracted for all of the Kv channel currents shown. […] Voltage-activation relationships were obtained by measuring tail currents for Kv channels or steady-state currents and calculating conductance for Nav channels, and a single Boltzmann function was fitted to the data according to I/Imax=[1c+cexp(−zF(Vc−cV1/2)/RT)]^−1, where I/Imax is the normalized tail-current amplitude, z is the equivalent charge, V1/2 is the half-activation voltage, F is Faraday's constant, R is the gas constant, and T is temperature in kelvin. For all channels, voltage-activation relationships were recorded in the absence and presence of toxin. The ratio of currents (I/I0) recorded in the presence (I) and absence (I0) of toxin was calculated for voltages typically ranging from −140 to 10 cmV, depending on the construct. […] The apparent equilibrium dissociation constant (apparent KD) for Kv channels was calculated according to KD=((1/(1c−cFu^1/4))c−c1)[toxin], assuming four independent toxin-binding sites per channel. Results are given as mean±SEM unless noted otherwise. Offline data analysis was performed using Clampfit 10™ (Molecular Devices), Origin 8.0™ (OriginLab), and Excel™ (Microsoft). All chemicals were obtained from Sigma-Aldrich.
Representative sodium currents were elicited by a 50-ms depolarization to a suitable membrane voltage (−20 to −15 mV) before (black) and after toxin addition (green) from a holding voltage of −90 mV. […] For each toxin, K^+ currents were elicited by a 300-ms depolarization to 0 mV from a holding voltage of −90 mV (tail voltage was −60 mV). […] For each toxin, K^+ currents (top) were elicited by a 300-ms depolarization near the foot of the voltage-activation curve (bottom) from a holding voltage of −90 mV.

[2] = molecular target: T1, rNav1.2a VSD IV paddle peptide (R1629A/L1630A, SEQ ID NO: 4) (Rattus norvegicus, UniProt P04775, L1630A/R1629A); test: SPR on immobilized rNav1.2a VSD IV paddle peptide; assay type: binding
T1 construct: purchased ProteoGenix; host or cells: chemical synthesis (Fmoc solid phase)
T1 sequence (P04775 1605-1636 R1629A/L1630A): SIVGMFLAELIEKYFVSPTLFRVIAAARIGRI

rNav1.2a = details: cited from earlier work
[3] = heterogeneous ligand model, 15-2,000 nM toxin, 50 fmol peptide, n=3, mean±SD
[4] = heterogeneous ligand model, 50 fmol peptide
[5] = heterogeneous ligand model, 50 fmol peptide, n=3, mean±SD

Molecule	effect on VSD IV chimera voltage-activation relationship ([1]; 1 μM toxin)	SPR binding to VSD IV paddle peptide ([2]; 100 nM toxin, 500 fmol peptide)	effect on WT rNav1.2a gating (rNav1.2a; 100 nM toxin)	Kd ([1]; 100 nM AaHII, n=3, mean±SEM, read-out: apparent KD) [nM]	K+ current inhibition of VSD IV chimera ([1]; 100 nM toxin)	association rate ka1 [2, 3] [M⁻¹ s⁻¹]	association rate ka2 [2, 3] [M⁻¹ s⁻¹]	dissociation rate kd1 [2, 3] [s⁻¹]	dissociation rate kd2 [2, 3] [s⁻¹]	RUmax1 [2, 4]	RUmax2 [2, 4]	high affinity KD1 (kd1/ka1) [2, 5] [nM]	lower affinity KD2 (kd2/ka2) [2, 5] [nM]	Kd (rNav1.2a; WT rNav1.2a, read-out: affinity of the toxin for WT rNav1.2a) [nM]
B1	does not influence	no RUs could be detected	clearly influences WT rNav1.2a gating	–	–	–	–	–	–	–	–	–	–	–
B2	–	–	–	1010	influenced less; also recorded: influenced to a much lesser extent	2330 ± 910	38200 ± 4700	0.000979 ± 0.00014	0.0281 ± 0.0058	135	23	479 ± 241	747 ± 203	~5
